B1: GST-HA-ATG16L1(231–607) [human] / TMEM59 peptide (residues 268–280), wild type [modified: long spacer (Tds) at the N-terminal end, used for immobilisation; long spacer (Tds) at the N-terminal end, used for immobilisation] [not stated] (parent complex)
chain 1: PLPVEQDDDIEVIVDETSDHTEETSPVRAISRAATKRLSQPAGGLLDSITNIFGRRSVSSFPVPQDNVDTHPGSGKEVRVPATALCVFDAHDGEVNAVQFSPGSRLLATGGMDRRVKLWEVFGEKCEFKGSLSGSNAGITSIEFDSAGSYLLAASNDFASRIWTVDDYRLRHTLTGHSGKVLSAKFLLDNARIVSGSHDRTLKLWDLRSKVCIKTVFAGSSCNDIVCTEQCVMSGHFDKKIRFWDIRSESIVREMELLGKITALDLNPERTELLSCSRDDLLKVIDLRTNAIKQTFSAPGFKCGSDWTRVVFSPDGSYVAAGSAEGSLYIWSVLTGKVEKVLSKQHSSSINAVAWSPSGSHVVSVDKGCKAVLWAQY
chain 2: YVPSEKLSIYGDL

The variants in the experiment derive from B1. In words: peptide microarray; 800, 400 nM (n = 6); parent: 100; read off a plot.
Turning to chain 2 Y1A, chain 2 E5A, chain 2 Y10A, chain 2 L13A, the percent of parent is roughly 1 % WT.

Source of the values: publication PMC7679444 (2020).
